Experimental data reported in patent publication US20260258115A1 (MAPP BIOPHARMACEUTICAL, published 2026).

B1: ADI-41279 (antibody, V domains shown)
VH: QVQLVQSGAEVKKAGETLKISCRGPAHTFTSFWIGWVRQTPGKGLEWMGNIYPGDTDTTYSPSFRGQVTISADKSISTAYLQWNSLKASDTAIYYCATRVRHGYSSSGSFESWGQGTMVTVSS
VL: QSVVTQPPSVSGAPGQRITISCTGSNSNTGAGYDVHWYQQLPGAAPKLLIFANNNRPSGVPDRFSGSKSGTSASLAITGLQAEDEADYYCQSYDNSLSAYVFGTGTKLTVL
B2: ADI-41280 (antibody, V domains shown)
VH: QVQLVESGPGLVKPSETLALTCTVSGGSLSTYYWSWIRQPPGKGLEWIGYIYYSGTTYYNPSLKSRVTISEDRSKNQFSLKLTSVTAADTAVYYCARHGPKTEFWSAQYYLELWGRGTLVTVSS
VL: EIVLTQSPGTLSLSPGERATLSCRASQSVSSDYLAWYQQKPGQAPSLLIYGVSTRATGIPDRISGSGSGTDFTLTISRLEPEDFAVYYCHQYGTSPWTFGQGTKVEIK
B3: ADI-41281 (antibody, V domains shown)
VH: QVQLVQSGAEVKKPGASVKVSCKASGYSFTNHGIHWVRQAPGQRLEWMGWINVANGFTAYSQNLQGRVTFTRDTSASTAYLELTSLRSEDTAVYHCARDESYCSAGYCYLYFDYWGQGTTVTVSS
VL: DIQVTQSPSSLSASVGDRVTITCRASQNIITYVNWYQQKPGKAPELLIFGASSVQSGVPSRFSGSGSGTDFTLTISSLRPDDFATYYCQQSYSNPRTFGGGTKVEIK
B4: ADI-41282 (antibody, V domains shown)
VH: QVQLVQSGGGVVQPGRSLRLSCAASGFMFTIYSMHWVRQAPGKGLEWVAVISNDGVNKYYSDSVKGRFTISRDNSKNTLYLQMNNLRAEDTAVYYCASDIVVLVTATDYWGQGTLVTVSS
VL: ETTLTQSPVTLSLSPGERATLSCRTSQSFSSPLLAWYQQKPGQAPRLLIYGASNRATGIPDRFSGSGSGTDFTLTISRLEPVDFAVYYCQQYGSSPYTFGQGTKLEIK
B5: ADI-41283 (antibody, V domains shown)
VH: QVTLKESGPTLVKPTQTLTLTCTFSGFSLSTFGVAVGWIRQPPGKALEWLALIYWDDDKRYSPSLKSRLTITKDISKNQVVLTMTNMDPVDTATYYCAHRLRSLTARGVFDIWGQGTTVTVSS
VL: DIRLTQSPSSLSASVGDRVTITCRASQSINNFLNWYQQRPGKAPTLLIYSASSLQSGVPSRFSGSGSGTDFTLTISSLQPEDFATYFCQQTDSFPWTFGQGTKVEIK
B6: ADI-41284 (antibody, V domains shown)
VH: QVQLVQSGGGLVKPGGSLRLSCAASGFTFSNAWMSWVRQAPGKGLEWVGRIKSEVDGGTADYAANVKGRLTISRDDSKNMMYLQMNSLKTEDTAVYYCTTDPGVGWIFGEVKLFRTDPEYWGQGTLVTVSS
VL: QSVLTQPPSVSAAPGQKVTISCSGSSSNIGNHYVSWYQQLPGTSPKLLIYDNNKRPSGIPDRFSGSKSGTSATLGITGLQPGDEADYYCGTWDSSLSAVRVFGGGTKVTVL
B7: ADI-41285 (antibody, V domains shown)
VH: QVQLVQSGAEVKKPGSSVKVSCKASGGTFSYYAISWVRQAPGQGLEWMGGIIPILGTVKNAQKFQGRVTITADKITSIAYMELSSLRHEDTAVYYCARDYYDSSGYYYNGYGMDVWGQGTTVTVSS
VL: QSVLIQPPSASGTPGQRVTISCSGSSSNIGSNYVYWYQQLPGTAPKLLIYRNDQRPSGVPDRFSGSKSGTSASLAISGLRSGDEADYYCAAWDDSLGGPIWVFGGGTKLTVL
B8: ADI-41286 (antibody, V domains shown)
VH: QVQLVQSGAEVKKPGASVKVSCKASGYTFISYGISWVRQAPGQGPEWMGWISTHNGNTNYAQKLQGRVTMTTDTSTSTAYMELRSLRSDDTAVYYCARDERSIAVEVYLGSTFDIWGQGTMVTVSS
VL: DIQVTQSPSSVSASVGDRVTITCRASQGISSWLAWYQQKPGKAPKLLIYAASTLQSGVPSRFSGSGSGTDFTLTISRLQPEDFATYYCQQANIFGVTFGPGTKVDIK

target: RSV F on RSV-A2 virus (Respiratory syncytial virus (RSV-A2)); assay: cell-based or functional assay

Question: For B1, which “Neutralization IC50 (RSV subtype A)” value is on record?
Answer: > 25 µg/mL

Question: With B2 as the binder, how does the “Neutralization IC50 (RSV subtype A)” value read?
Answer: > 25 µg/mL

Question: Which “Neutralization IC50 (RSV subtype A)” value does the source give for B3 here?
Answer: > 25 µg/mL

Question: B4 was tested. Which “Neutralization IC50 (RSV subtype A)” value did it give?
Answer: > 25 µg/mL

Question: With B5 as the binder, how does the “Neutralization IC50 (RSV subtype A)” value read?
Answer: > 25 µg/mL

Question: Which “Neutralization IC50 (RSV subtype A)” value does the source give for B6 here?
Answer: > 25 µg/mL

Question: For B7, which “Neutralization IC50 (RSV subtype A)” value is on record?
Answer: > 25 µg/mL

Question: Which “Neutralization IC50 (RSV subtype A)” value does the source give for B8 here?
Answer: > 25 µg/mL
